Measured values from patent US20140255414A1 (PROBIODRUG, published 2014).
Square brackets hold non-standard residues; d marks the D form. pGlu = O=C1CC[C@@H](C(=O)O)N1; PEG = not defined here

Columns and labels:
Aβ(pE11-18)-PEG peptide [1] = target: T1, Aβ(pE11-18)-PEG peptide (reading uncertain); assay: ITC at 20 °C, peptide titrated into antibody eluted with KSCN gradient (KD=1/KA)
T1 construct: The PEG attachment is not described further
T1 peptide: [pGlu]VHHQKLV-{PEG}
Protocol: (§1) For the ITC experiment, the peptide Aβ(pE11-18)-PEG was used because the hydrophilic PEG group imparts hydrophilic properties and so it was possible to dissolve the peptide directly in ITC buffer. Former experiments with Aβ(pE11-20) could only be performed with 1-2% DMSO, due to the strong hydrophobicity of the peptide it was necessary to dissolve it with DMSO which could have an effect on the ITC binding properties. At first the antibody was dialyzed against ITC buffer (150 mM NaCl, 25 mM Na₂HPO₄, 25 mM KH₂PO₄, 1 mM EDTA, pH=7.1) over night at 4° C. The lyophilised peptide, stored at −20° C., was dissolved in identical ITC buffer pH=7.1 which was used for antibody dialysis. Both antibody and antigen must be in identical solutions, otherwise large heats of dilution will mask the desired observation. Before the ITC experiment, the concentration of antibody was determined by UV/VIS spectroscopy (see section 1.3.1). […] Furthermore the heat of reaction was determined which was only generated by dilution of the antigen through the titration into ITC buffer (pH=7.1). […]
(§2) To characterize the binding of anti Aβ11(pE) antibody at the Aβ(pE11-18)-PEG peptide the method of Isothermal Titration calorimetry (ITC) was used (see section 1.3.4). The antibody which was eluted from protein G column with KSCN-gradient (pH 7.0) and 0.1 M glycine-HCl (pH 2.7) was analyzed.

Aβ(pE11-18)-PEG peptide [2] = target: T1, Aβ(pE11-18)-PEG peptide; assay: ITC at 20 °C, peptide titrated into antibody eluted with 0.1 M glycine-HCl pH 2.7
Protocol: For the ITC experiment, the peptide Aβ(pE11-18)-PEG was used because the hydrophilic PEG group imparts hydrophilic properties and so it was possible to dissolve the peptide directly in ITC buffer. Former experiments with Aβ(pE11-20) could only be performed with 1-2% DMSO, due to the strong hydrophobicity of the peptide it was necessary to dissolve it with DMSO which could have an effect on the ITC binding properties. At first the antibody was dialyzed against ITC buffer (150 mM NaCl, 25 mM Na₂HPO₄, 25 mM KH₂PO₄, 1 mM EDTA, pH=7.1) over night at 4° C. The lyophilised peptide, stored at −20° C., was dissolved in identical ITC buffer pH=7.1 which was used for antibody dialysis. Both antibody and antigen must be in identical solutions, otherwise large heats of dilution will mask the desired observation. Before the ITC experiment, the concentration of antibody was determined by UV/VIS spectroscopy (see section 1.3.1). At first the antibody with e.g. 5.13 μM (see Table 4) was added into the sample cell and the reference cell was filled with distilled water. Then the antigen was injected into the sample cell with e.g. 81.78 μM (see Table 4). The antigen should be generally in twofold excess to the antibody, bearing in mind that an antibody has two binding sites the antigen was in the cell at least in fourfold excess to the antibody. The 30 injections (1×2 μl and 29×10 μl) were made with a 4-min interval between subsequent injections. The measurement of heat of reaction was performed at 20° C. Furthermore the heat of reaction was determined which was only generated by dilution of the antigen through the titration into ITC buffer (pH=7.1). Therefore the antigen was injected into the sample cell filled with ITC buffer. […]
as §2

Aβ(pE11-18)-PEG peptide [3] = target: T1, Aβ(pE11-18)-PEG peptide; assay: ITC at 20 °C, peptide titrated into antibody eluted with 0.1 M glycine-HCl pH 2.7 (KD=1/KA)
Protocol: as §1, §2

Aβ(pE11-20)-biotin = target: T2, Aβ(pE11-20)-biotin; assay: ELISA: 200 ng/ml Aβ(pE11-20)-biotin on streptavidin plate, antibody 55-3500 pg/ml, detection with rabbit anti-mouse Ig's HRP, absorption 450/540 nm
T2 construct: Immobilized on streptavidin-coated microplates in the auto-Ig-ELISA
T2 peptide: [pGlu]VHHQKLVFF-biotin
Protocol: Immobilization of 200 ng/ml Aβ(pE11-20)-biotin at streptavidin coated microplate (2 h, at RT). Blocking with 200 μl ELISA-Blocker (−T) 1 h at RT and followed by wash cycle (3×300 μl/well wash buffer). Standard anti Aβ11(pE) antibody (clone 13) was diluted in ELISA-Blocker (+T) in radix division from 3500 pg/ml down to 55 pg/ml and incubated 2 h at 4° C. A wash cycle followed and detection with polyclonal rabbit anti-mouse Ig's HRP 1 h at 4° C. After wash cycle TMB/H₂O₂ were added, incubated 30 min at RT (dark) and enzyme reaction was stopped with 1 M H₂SO₄. Absorption was measured at 450/540 nm at TECAN Sunrise.

Aβ(pE11-30) peptide = target: T3, Aβ(pE11-30) peptide (N-terminal pyroglutamate (Aβ position 11)); assay: SPR (Biacore 3000), purified antibody 0.04-10 µg/ml, 30 µl/min for 300 s, CM5 chip with immobilized Aβ(pE11-30); signal taken at the end of the dissociation phase, non-coated flow cell subtracted
T3 construct: Synthesized peptide; Amine-coupled to a CM5 chip for SPR, or adsorbed to the microplate for the direct ELISA
T3 peptide: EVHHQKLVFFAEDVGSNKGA
Protocol: Then the coupling of peptide followed. At first 10 μg/ml peptide Aβ(pE11-30) in 10 mM potassiumdihydrogenorthophosphate pH 6 was injected with a flow rate of 10 μl/min for 5 min. Because of the low signal rise the peptide was applied again with a higher concentration diluted in a solution with pH 5. 50 μg/ml peptide Aβ(pE11-30) in 10 mM sodium acetate pH 5 was injected with a flow rate of 10 μl/min for 20 min. A mild acid pH was chosen for coupling to provide a pre-concentration of the peptide (positive net charge) at the sensor surface (carboxyl group negative net charge) by electrostatic attraction. The covalent bond of the peptide was formed by the reaction of the two amino acids lysine (at peptide position 16 and 28) with the activated carboxyl group at chip surface. Excess reactive ester groups were deactivated with 1 M ethanolamine pH 8.5 with a flow rate of 10 μl/min for 10 min. Non-immobilized peptides were removed by injection of 0.1 M HCl (3×10 μl) and subsequently the chip was rinsed over night with running buffer. At the end the signal was about 1000 Response Units (RU) whereby the chip surface was saturated with the peptide.
For the measurement of anti Aβ11(pE) antibody concentration a CM5 chip, which was coated with Aβ(pE11-30) was used. The chip surface was saturated with the peptide and the signal was about 1000 Response Units (RU) (see section 1.3.3.1). […]

Kd (Aβ(pE11-18)-PEG peptide [1]): 78.7 nM
-TΔS (Aβ(pE11-18)-PEG peptide [2]): -1.36 kcal/mol
Ka (Aβ(pE11-18)-PEG peptide [2]): 9.5e+06 M⁻¹
Stoichiometry (N) (Aβ(pE11-18)-PEG peptide [2]): 1.01
Kd (Aβ(pE11-18)-PEG peptide [3]): 105 nM
binding result (Aβ(pE11-20)-biotin): binds
EC50 (read off the curve) (Aβ(pE11-30) peptide): ~1 µg/mL
B1: monoclonal mouse anti Aβ11(pE) antibody Aβ 13-11-6 (clone 13), Deposit No. DSM ACC 3100 (antibody, V domains shown)
VH: QVQLQQPGTELVKPGASVKLSCKASGFTFTSYWMHWVRQRPGQGLEWIGEINPSNGRTNYNEKFKSKATLTVDKSSSTAYMQLSSLTSEDSEVYYCARGDLAWDWSAYWGQGTLVTVSA
VL: DIVMSQSPSSLAVSAGEKVTMSCKSSQSLFYSRTRKNYLAWYQQKPGQSPKLLIYWASTRESGVPDRFTGSGSGTDFTLTISSVQAEDLAVYYCKQSYNLWSFGGGTKLEIKR
notes: The KSCN-eluted and glycine-HCl-eluted preparations are the same molecule; also called pEVHH-59025 13-11-6; mAb mouse anti Aβ11(pE)
